Results: patent publication US20110263454A1, “Methods of Identifying Functional Characteristics of Promoters, Transcription Modifying Proteins and Transcription Modulating Agents” (Salk Institute for Biological Studies, priority 2008, published 2011)

Legend:
mLeptin promoter = test: NHR-promoter luciferase screen, mLeptin promoter; format: cell-based, mouse; conditions: for Luc. act., normalized to lacZ / Normalized Luc. act., normalized to control: Table 7, mLeptin; for Results of assays of transcription factor (+/- ligand) with mLeptin: Table 6d, luciferase activity relative to control (control = 1.00)
Method in brief: (§1)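 CV-1 cells were co-transfected with 50 ng NHR (homodimer or NHR/RXR heterodimer), 100 ng promoter-luciferase construct and 50 ng LacZ. Luciferase was normalized to LacZ and to a no-NHR/no-ligand control.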

hMyoD promoter = test: NHR-promoter luciferase screen, hMyoD promoter; format: cell-based, human; conditions: for Luc. act., normalized to lacZ / Normalized Luc. act., normalized to control: MyoD promoter reporter, co-transfected HR, without or with its ligand; for Normalized Luc. act., normalized to control: relative to control; for luciferase activity normalized to lacZ activity and to a control, hMyoD: hMyoD promoter-luciferase, CV-1 cells, NHR +/- ligand, control = 1.00
Method in brief: as §1

hPPARg2 promoter = test: NHR-promoter luciferase screen, hPPARg2 promoter; format: cell-based, human; conditions: for Luc. act., normalized to lacZ / Normalized Luc. act., normalized to control: PPARG2 promoter, hormone receptor with or without its ligand; for Normalized Luc. act., normalized to control: relative to control; for Results of assays of transcription factor (+/- ligand) with hPPARg2: Table 6d, luciferase activity relative to control (control = 1.00)
Method in brief: as §1

mGhrelin promoter = test: NHR-promoter luciferase screen, mGhrelin promoter; format: cell-based, mouse; conditions: for Luc. act., normalized to lacZ / Normalized Luc. act., normalized to control: Table 8, mGhrelin; for Results of assays of transcription factor (+/- ligand) with mGhrelin: Table 6d, luciferase activity relative to control (control = 1.00)
Method in brief: as §1

hG6PD promoter = test: NHR-promoter luciferase screen, hG6PD promoter; format: cell-based, human; conditions: for Luc. act., normalized to lacZ / Normalized Luc. act., normalized to control: G6PD promoter reporter, co-transfected HR, without or with its ligand; for Normalized Luc. act., normalized to control: relative to control; for luciferase activity normalized to lacZ activity and to a control, hG6PD: hG6PD promoter-luciferase, CV-1 cells, NHR +/- ligand, control = 1.00
Method in brief: as §1

hMDR1 promoter = test: NHR-promoter luciferase screen, hMDR1 promoter; format: cell-based, human; conditions: for Luc. act., normalized to lacZ / Normalized Luc. act., normalized to control: MDR1 promoter, HR/ligand component; for hMDR1 promoter reporter activity: transcription factor +/- ligand, control = 1.00
Method in brief: as §1

| Molecule | Luc. act., normalized to lacZ (mLeptin promoter) | Normalized Luc. act., normalized to control (mLeptin promoter) | Results of assays of transcription factor (+/- ligand) with mLeptin (mLeptin promoter) | Luc. act., normalized to lacZ (hMyoD promoter) | Normalized Luc. act., normalized to control (hMyoD promoter) | luciferase activity normalized to lacZ activity and to a control, hMyoD (hMyoD promoter) | Luc. act., normalized to lacZ (hPPARg2 promoter) | Normalized Luc. act., normalized to control (hPPARg2 promoter) | Results of assays of transcription factor (+/- ligand) with hPPARg2 (hPPARg2 promoter) | Luc. act., normalized to lacZ (mGhrelin promoter) | Normalized Luc. act., normalized to control (mGhrelin promoter) | Results of assays of transcription factor (+/- ligand) with mGhrelin (mGhrelin promoter) | Luc. act., normalized to lacZ (hG6PD promoter) | Normalized Luc. act., normalized to control (hG6PD promoter) | luciferase activity normalized to lacZ activity and to a control, hG6PD (hG6PD promoter) | Luc. act., normalized to lacZ (hMDR1 promoter) | Normalized Luc. act., normalized to control (hMDR1 promoter) | hMDR1 promoter reporter activity (hMDR1 promoter) |
| --- | --- | --- | --- | --- | --- | --- | --- | --- | --- | --- | --- | --- | --- | --- | --- | --- | --- | --- |
| DAX-1: DAX1 (NR0B1), cDNA driver (protein, UniProt P51843 1-470, looked up) Nuclear receptor subfamily 0 …: MAGENHQWQGSILYNMLMSAKQTRAAPEAPETRLVDQCWGCSCGDEPGVGREGLLGGRNVALLYRCCFCGKDHPRQGSILYSMLTSAKQTYAAPKAPEATLGPCWGCSCGSDPGVGRAGLPGGRPVALLYRCCFCGEDHPRQGSILYSLLTSSKQTHVAPAAPEARPGGAWWDRSYFAQRPGGKEALPGGRATALLYRCCFCGEDHPQQGSTLYCVPTSTNQAQAAPEERPRAPWWDTSSGALRPVALKSPQVVCEAASAGLLKTLRFVKYLPCFQVLPLDQQLVLVRNCWASLLMLELAQDRLQFETVEVSEPSMLQKILTTRRRETGGNEPLPVPTLQHHLAPPAEARKVPSASQVQAIKCFLSKCWSLNISTKEYAYLKGTVLFNPDVPGLQCVKYIQGLQWGTQQILSEHTRMTHQGPHDRFIELNSTLFLLRFINANVIAELFFRPIIGTVSMDDMMLEMLCTKI | 2.5 | 0.9 | 0.87 | 61.3 | 1.0 | 0.97 | 1.9 | 0.9 | 0.94 | 63.3 | 1.2 | 1.21 | 46.0 | 1.2 | 1.23 | 0.3 | 0.9 | 0.89 |
| SHP: Small Heterodimer Partner (NR0B2), cDNA driver (protein, UniProt Q15466 1-257, looked up) Nuclear receptor subfamily 0 …: MSTSQPGACPCQGAASRPAILYALLSSSLKAVPRPRSRCLCRQHRPVQLCAPHRTCREALDVLAKTVAFLRNLPSFWQLPPQDQRRLLQGCWGPLFLLGLAQDAVTFEVAEAPVPSILKKILLEEPSSSGGSGQLPDRPQPSLAAVQWLQCCLESFWSLELSPKEYACLKGTILFNPDVPGLQAASHIGHLQQEAHWVLCEVLEPWCPAAQGRLTRVLLTASTLKSIPTSLLGDLFFRPIIGDVDIAGLLGDMLLLR | 2.7 | 0.9 | 0.91 | 54.0 | 0.9 | 0.85 | 1.9 | 0.9 | 0.93 | 56.5 | 1.1 | 1.08 | 43.2 | 1.2 | 1.15 | 0.3 | 0.8 | 0.84 |
